Consider eight molecules from patent publication US20260250379A1 (HANGZHOU SUMGEN BIOTECH, published 2026).

Like-named read-outs stand apart in the source and are kept apart here.

Experiment [1] addresses T1, Human LILRB4/CD85k/ILT3 Protein (ECD, His Tag), Sino Biological (human, UniProt Q8NHJ6 22-259).
T1 construct: extracellular domain; It is not tied to this bought protein; also called LILRB4 protein; not shown: His tag
Put plainly: ELISA, human LILRB4 ECD-His coated, HRP goat anti-human IgG Fc, OD450. (In general: An ELISA detects its analyte on a solid surface through an enzyme-linked reagent.)

In experiment [2] the target is T2, Human LILRB1/CD85/ILT2/ILR1 Protein (ECD, His Tag), Sino Biological (human, UniProt Q8NHL6 24-461).
T2 construct: extracellular domain; not shown: His tag
T2 sequence (Q8NHL6 24-461): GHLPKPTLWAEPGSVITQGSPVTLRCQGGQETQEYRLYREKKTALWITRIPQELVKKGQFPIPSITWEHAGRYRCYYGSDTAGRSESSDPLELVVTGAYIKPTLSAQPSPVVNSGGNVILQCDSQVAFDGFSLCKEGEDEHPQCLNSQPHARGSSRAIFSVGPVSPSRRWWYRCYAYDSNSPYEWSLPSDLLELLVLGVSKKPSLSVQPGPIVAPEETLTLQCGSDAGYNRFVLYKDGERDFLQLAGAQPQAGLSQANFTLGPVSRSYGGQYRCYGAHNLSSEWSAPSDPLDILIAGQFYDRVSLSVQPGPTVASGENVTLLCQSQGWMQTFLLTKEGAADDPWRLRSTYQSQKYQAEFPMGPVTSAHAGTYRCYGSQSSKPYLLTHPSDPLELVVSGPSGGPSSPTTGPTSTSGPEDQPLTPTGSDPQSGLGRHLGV
The experiment can be described thus: ELISA, LILRB family proteins (His tag) coated, antibody at 10 ug/mL, HRP goat anti-human IgG Fc, OD450.

For experiment [3], the target named is T3, Human LILRB2/ILT4/LIR-2 Protein (ECD, His Tag), Sino Biological (human, UniProt Q8N423 22-460).
T3 construct: extracellular domain; not shown: His tag
T3 sequence (Q8N423 22-460): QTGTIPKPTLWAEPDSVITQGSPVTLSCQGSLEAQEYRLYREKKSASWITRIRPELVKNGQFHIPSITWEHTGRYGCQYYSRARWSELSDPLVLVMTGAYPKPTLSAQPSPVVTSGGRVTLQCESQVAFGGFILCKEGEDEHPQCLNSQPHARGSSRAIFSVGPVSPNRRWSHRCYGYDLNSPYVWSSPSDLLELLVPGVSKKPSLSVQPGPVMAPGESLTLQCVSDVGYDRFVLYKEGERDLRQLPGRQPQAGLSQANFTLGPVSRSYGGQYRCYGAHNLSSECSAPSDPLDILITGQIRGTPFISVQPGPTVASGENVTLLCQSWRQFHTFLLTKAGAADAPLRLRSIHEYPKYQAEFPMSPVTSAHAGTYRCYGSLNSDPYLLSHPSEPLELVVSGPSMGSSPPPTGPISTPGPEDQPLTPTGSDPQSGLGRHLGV
Described as above.

The target in experiment [4] is T4, Human LILRB3/LIR3/ILT5/CD85a Protein (ECD, His Tag), Sino Biological (human, UniProt O75022 24-443).
T4 construct: extracellular domain; not shown: His tag
T4 sequence (O75022 24-443): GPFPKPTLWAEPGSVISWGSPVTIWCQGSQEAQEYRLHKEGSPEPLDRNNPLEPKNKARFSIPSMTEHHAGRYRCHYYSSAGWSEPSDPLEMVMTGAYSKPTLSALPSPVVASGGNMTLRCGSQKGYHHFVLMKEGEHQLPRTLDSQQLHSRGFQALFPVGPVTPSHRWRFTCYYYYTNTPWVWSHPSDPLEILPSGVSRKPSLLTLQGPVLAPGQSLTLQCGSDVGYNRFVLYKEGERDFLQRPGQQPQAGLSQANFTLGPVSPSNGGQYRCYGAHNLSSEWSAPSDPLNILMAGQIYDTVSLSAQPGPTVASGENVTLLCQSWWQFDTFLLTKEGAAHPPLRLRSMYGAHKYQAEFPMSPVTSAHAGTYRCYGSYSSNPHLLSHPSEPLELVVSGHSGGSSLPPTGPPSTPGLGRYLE
Described as above.

Experiment [5] deals with T5, Human LILRB5/CD85c/LIR-8 Protein (ECD, His Tag), Sino Biological (human, UniProt O75023 24-458).
T5 construct: extracellular domain; not shown: His tag
T5 sequence (O75023 24-458): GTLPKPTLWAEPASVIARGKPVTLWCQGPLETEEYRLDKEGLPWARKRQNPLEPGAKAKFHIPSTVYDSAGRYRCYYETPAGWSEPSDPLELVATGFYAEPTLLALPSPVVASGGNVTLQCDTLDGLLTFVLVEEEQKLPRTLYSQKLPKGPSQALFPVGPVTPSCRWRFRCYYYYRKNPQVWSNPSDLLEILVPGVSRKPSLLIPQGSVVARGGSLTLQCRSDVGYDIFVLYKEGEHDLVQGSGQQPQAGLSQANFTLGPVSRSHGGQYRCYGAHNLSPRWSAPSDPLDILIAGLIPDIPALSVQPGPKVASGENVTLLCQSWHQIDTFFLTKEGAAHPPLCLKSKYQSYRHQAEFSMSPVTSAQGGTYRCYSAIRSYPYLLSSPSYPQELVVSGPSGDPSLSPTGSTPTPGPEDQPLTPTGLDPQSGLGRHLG
The experiment is described as above.

Experiment [6] addresses T6, LILRB4 on LILRB4 effector reporter cells (jurkat-LILRB4) (UniProt Q8NHJ6 22-448). The experiment can be described thus: cell-based or functional assay.
For experiment [7], the target named is human LILRB4 on 293T-hLILRB4 cells (human, UniProt Q8NHJ6 22-448). Put plainly: cell-based or functional assay.
In experiment [8] the target is T7, LILRB4 on human mononuclear leukemia cells THP-1 (human, UniProt Q8NHJ6 22-448).
T7 construct: whole, on cells; The protein is endogenous to the cells; also called LILRB4 positive cells THP-1
The experiment can be described thus: flow cytometry on THP-1 cells, PE goat anti-human IgG Fc, MFI. A general note: In flow cytometry, cells or beads pass a laser one at a time.

Experiment [9] concerns the target T1, Human LILRB4/CD85k/ILT3 Protein (ECD, …). Put plainly: ELISA, human LILRB4 ECD-His coated, HRP goat anti-human IgG Fc, OD450. The source holds these as a separate data set.
Experiment [10] addresses T8, LILRB4 (Beijing ACROBiosystems, article number LI4-H52H7, 6xHis label) (human, UniProt Q8NHJ6 22-259).
T8 construct: Analyte (mobile phase) in the BIACORE 8K assay; also called Human LILRB4; not shown: 6xHis label
Put plainly: SPR, BIACORE 8K; antibody captured on Protein A chip, LILRB4-6xHis as analyte. How it is done:
A BIACORE 8K biomacromolecule interactor (GE Company) was adopted to analyze the affinity of an antibody. A Series S Sensor Chip Protein A Chip (GE Company) was used for capturing an antibody to be detected, the concentration of the antibody to be detected was set to be 15 μg/mL, and the sample was fed at a speed of 10 μl/min until RU=500; LILRB4 (Beijing ACROBiosystems, article number: LI4-H52H7, 6×His label, and the theoretical molecular weight: 28.2 Kda) was used as a mobile phase, 6 concentration gradients (0.0977 nM-200 nM) were used, and the binding time was 180 sec; and the dissociation time was 300 sec. The result of the affinity of the antibody to be detected is as set forth in follows: […]
(In SPR one partner is held on a chip, and binding of the other changes the refractive index at the surface.)

The target of experiment [11] is T6, LILRB4 on LILRB4 effector reporter …. Put plainly: cell-based or functional assay. The source holds these as a separate data set.
For experiment [12] the target is unchanged. Put plainly: cell-based or functional assay. This is another data set of the same source.

B1: chimeric antibody 5E11-2 (antibody, V domains shown)
VH: EVKLEESGGGLVQPGGSMKLSCAASGFTFSDAWMDWVRQSPEKGLEWVAEIRSKPNNHATYYAESVKGRFTISRDDSKSSVYLQMNSLRAEDTGIYYCTRTTDYSMDYWGQGTSVTVSS
VL: DIQMTQSPASLAVSLGQRATISCRASQSVSASSYSYMHWYQQKPGQPPKLLIKYASNLQSGVPARFSGSGSGTDFTLNIHPVEEEDSATYYCQHSWEIPRTFGGGTKLEIK
notes: Full chains are not tied by name
One may read the EC50 (read off the curve) as the concentration giving half of the maximal effect. Read a high EC50 (read off the curve) as a less potent agent. Regarding B1, in experiment [1], the “EC50 (read off the curve)” value is around 50 ng/mL. Also, the binding result in experiment [2], in experiment [3], in experiment [4] and in experiment [5] was “no binding (tested: 10 ug/mL)” throughout.

B2: humanized antibody RB4-G1-018 (antibody, human IgG1, kappa, V domains shown)
VH: QVQLVQSGAEVKKPGASVKVSCKASGYTFTSYWMHWVRQAPGQGLEWIGEINPSNGRTNYNEKFKSRATLTVDKSTSTAYMELSSLRSEDTAVYYCARDRYDEGNAMDYWGQGTTVTVSS
VL: DIQMTQSPSSLSASVGDRVTITCRASQDITNYLNWYQQKPGKAPKLLIYYTSRLHSGVPSRFSGSGSGTEYTLTISSLQPDDFATYYCQQGDTLPRTFGQGTRLEIKR
By Kd is commonly meant the constant that tells how readily two partners part at equilibrium. The term koff denotes the first-order rate constant of dissociation. Higher therefore signals a short-lived complex. As a reminder, the kon is the rate constant with which the complex forms. A high value points to faster complex formation. With B2, the “EC50 (read off the curve); luciferase RLU, blocking of APOE” value (“EC50 (read off the curve) … of APOE” below) in experiment [6] was around 10 ng/mL. Also, the “EC50 (read off the curve); ADCC reporter induction multiple” value (“EC50 … ADCC reporter induction multiple” below) in [7] is around 60 ng/mL. Further, the “EC50 (read off the curve)” value in experiment [8] was around 30 ng/mL. Further, the half-maximal effective concentration (EC50 (read off the curve)) in experiment [9] was around 30 ng/mL. Further, in experiment [10], the Kd turned out to be 2.81 nM, the dissociation rate constant (koff) stood at 0.00433 s⁻¹ and the on-rate constant (kon) was found to be 1.54e+06 M⁻¹ s⁻¹.

B3: humanized antibody RB4-G1-020 (antibody, human IgG1, kappa, V domains shown)
VH: QVQLVQSGAEVKKPGASVKVSCKASGYTFTSYWMHWVRQAPGQGLEWMGEINPSNGRTNYNEKFKSRVTMTRDTSTSTVYMELSSLRSEDTAVYYCARDRYDEGNAMDYWGQGTTVTVSS
VL: DIQMTQSPSSLSASVGDRVTITCRASQDITNYLNWYQQKPGKAPKLLIYYTSRLHSGVPSRFSGSGSGTEYTLTISSLQPDDFATYYCQQGDTLPRTFGQGTRLEIKR
B3: the “EC50 (read off the curve) … of APOE” value in experiment [6] is around 20 ng/mL. Besides, in [7], the “EC50 … ADCC reporter induction multiple” value was around 60 ng/mL. In [8], the “EC50 (read off the curve)” value was around 30 ng/mL. The 50% effective concentration (EC50 (read off the curve)) in experiment [9] is around 30 ng/mL. In experiment [10], this molecule gave a Kd of 3.29 nM, an off-rate (koff) of 0.00834 s⁻¹ and a kon of 2.53e+06 M⁻¹ s⁻¹.

B4: humanized antibody RB4-G1-019 (antibody, human IgG1, kappa, V domains shown)
VH: QVQLVQSGAEVKKPGASVKVSCKASGYTFTSYWMHWVRQAPGQGLEWMGEINPSNGRTNYNEKFKSRVTLTVDKSTSTVYMELSSLRSEDTAVYYCARDRYDEGNAMDYWGQGTTVTVSS
VL: DIQMTQSPSSLSASVGDRVTITCRASQDITNYLNWYQQKPGKAPKLLIYYTSRLHSGVPSRFSGSGSGTEYTLTISSLQPDDFATYYCQQGDTLPRTFGQGTRLEIKR
Consider B4, for which the “EC50 (read off the curve) … of APOE” value in experiment [6] is around 10 ng/mL. For the same molecule, in experiment [7], the “EC50 … ADCC reporter induction multiple” value was around 60 ng/mL. Further, the concentration for a half-maximal effect (EC50 (read off the curve)) in [8] was around 30 ng/mL. Further, in [9], the “EC50 (read off the curve)” value was around 30 ng/mL. Moreover, in experiment [10], the dissociation constant (Kd) amounted to 2.77 nM, the off-rate constant (koff) came out at 0.00343 s⁻¹ and the kon is 1.24e+06 M⁻¹ s⁻¹.

B5: humanized antibody RB4-G1-022 (antibody, human IgG1, kappa, V domains shown)
VH: QVQLVQSGAEVKKPGASVKVSCKASGYTFTSYWMHWVRQAPGQGLEWIGEINPSNGRTNYNEKFKSRATLTVDKSTSTAYMELSSLRSEDTAVYYCARDRYDEGNAMDYWGQGTTVTVSS
VL: DIQMTQSPSSLSASVGDRVTITCRASQDITNYLNWYQQKPGKAPKLLIYYTSRLHSGVPSRFSGSGSGTDYTFTISSLQPEDIATYYCQQGDTLPRTFGQGTRLEIKR
With B5, the “EC50 (read off the curve) … of APOE” value in experiment [6] is around 20 ng/mL. In experiment [7], the “EC50 … ADCC reporter induction multiple” value was around 50 ng/mL. For the same molecule, the “EC50 (read off the curve)” value in [8] is around 40 ng/mL. Also, in [9], the “EC50 (read off the curve)” value is around 30 ng/mL. Also, in [10], the Kd turned out to be 2.33 nM, the koff was 0.00418 s⁻¹ and the on-rate (kon) came out at 1.8e+06 M⁻¹ s⁻¹.

B6: chimeric antibody 1A2-7 (antibody, V domains shown)
VH: QVQLQQPGAELVKPGASVKLSCKASGYTFTSYWMHWVKQRPGQGLEWIGEINPSNGRTNYNEKFKSKATLTVDKSSSTAYMQLNSLTSEDSAVYYCARDRYDEGNAMDYWGQGTSVTVSS
VL: DIVMTQTTSSLSASLGDRVTISCRASQDITNYLNWYQQKPDGTVKLLIYYTSRLHSGVPSRFSGSGSGTDYSLTISNLEQEDIATYFCQQGDTLPRTFGGGTKLEIK
B6: the “EC50 (read off the curve) … of APOE” value in experiment [11] is around 0.03 ng/mL. The “EC50 (read off the curve)” value in experiment [1] is around 30 ng/mL. The binding result in experiment [2], in experiment [3], in experiment [4] and in experiment [5] was “no binding (tested: 10 ug/mL)” in each case.

B7: chimeric antibody 3G9-1 (antibody, V domains shown)
VH: QVQLQQPGAELVKPGASVKLSCKASGYTFTSYWMHWVKQRPGQGLEWIGEINPSNGRTNYNEKFKSKATLIVDKSSSTAYMQLSSLTSEDSAVYYCARGIYYGYDYAMDYWGQGTSVTVSS
VL: DIQMTHTTSSLSASLGDRVTISCRASQDISNYLNWYQQKPDGTVKLLIYYTSRLHSGVPSRFSGSGSGTDYSLTISNLEQEDIATYFCQQGNTLPPTFGGGTKLEIK
notes: as for B1
With B7, in experiment [1], the concentration for a half-maximal effect (EC50 (read off the curve)) is around 20 ng/mL. For the same molecule, the binding result in experiment [2], in experiment [3], in experiment [4] and in experiment [5] was “no binding (tested: 10 ug/mL)” in each case.

B8: chimeric antibody 3A2-18 (antibody, V domains shown)
VH: EVQLQQPGAELVKPGASVKLSCKASGYTFTSYWMHWVKQRPGQGLEWIGEINPSNGRTNYNEKFKSKATLTVDKSSSTAYVQLNSLTSEDSAVYYCARDRYDEGNAMDYWGQGTSVTVSS
VL: DIVMTQTTSSLSASLGDRVTISCRASQDITNYLNWYQQKPDGTVKLLIYYTSRLHSGVPSRFSGSGSGTDYSLTISNLEQEDIATYFCQQGDTLPRTFGGGTKLEIK
notes: as for B1
Turning to B8, the “EC50 (read off the curve) … of APOE” value in experiment [12] is around 10 ng/mL. Besides, in experiment [1], the “EC50 (read off the curve)” value was around 30 ng/mL. Further, the binding result in [2], in experiment [3], in experiment [4] and in [5] was “no binding (tested: 10 ug/mL)” in each case.
